The chains are these.
B1: 2C10 (VHH)
VHH: QLQLVESGGGLVQAGGSLRLSCAASGRTFSSYAMGWFRQAPGKEREFVAVISWSGGSTYYADSVKGRFTISGDNAKNTVYLQMNSLKPEDTAVYYCATEGPKWEPYNGIYSPADFGSWGQGTQVTVSS
B2: 1E04 (VHH)
VHH: QLQLVESGGGLVQTGGSLRLSCAASGRTFSNYNAGWFRQVPGKEPEFVAAINWSGGTTYYADSVKGRFTISRDNAKNTVYLQMNSLKPEDTAVYYCAADPDWSILNPREYDYWGQGTRVTVSS
B3: 11C03 (VHH)
VHH: QLQVVESGGGLVQAGGSLRLSCAASERTFVAYPMGWFRQAPEKEREFVAGISWFAGATTDYADSVEGRFTISRDNAKNTAYLQMNNLKPEDTAVYYCAISHQLPGGRPGRDMDSYSYWGHGTQVTVSS
notes: also called 11C03 parental (VHH)
B4: 2A10 (VHH)
VHH: EVQLVESGGGLVQAGGSLRLSCAASGRTFSSYAMGWFRQAPGKEREFVATINWSGGSTYYADSVKGRFTISRDNAKNTVYLQMNSLKPEDTAVYYCAADLYGPGFVLSMEYDYWGQGTQVTVSS
B5: 2B03 (VHH)
VHH: QLQLVESGGGLVQAGGSLRLSCAASGRAISSYVMAWFRQAPGKEREFVTSINWSGGSTYYAHSVKGRFTISRDNAKNTVYLQMNTLKPEDTAVYYCAADLYGLGYEVMSYDYWGQGTQVTVSS
B6: 2H11 (VHH)
VHH: ELQVVESGGGLVQAGGSLRLSCAASGRTFRSNTMGWFRQAPGKEREFVAAITWSGGTTYYADSVKGRFAISGDNAKNTVYLQMNSLKPEDTAVYYCAAEGPKWEPWNGIYHPADFGSWGQGTQVTVSS
notes: also called 2H11 parental (VHH)
B7: 4G12 (VHH)
VHH: QLQLVESGGGLVQAGGSLRLSCVASGRSFSTYGMGWFRQAPGAEREFAAAINWKGDRYYADSVKGRFTISRDNAKNTVFLEMNSLKPEDTGVYYCAADSDGSAFSRRLEYDYWGQGTQVTVSS
B8: 2H11-v9 fused at the C-terminus of Fc-ABDEG (two-armed Fc-ABDEG-20GS-Cterm fusion) (Fc fusion, not shown: a dimerising Fc or GST; large carriers; small tags and cut ends)
VHH: B6 VHH with N107A
B9: 2H11-v12 fused at the C-terminus of Fc-ABDEG (two-armed Fc-ABDEG-20GS-Cterm fusion) (Fc fusion, not shown: a dimerising Fc or GST; large carriers; small tags and cut ends)
VHH: B6 VHH with Y110A
B10: 2H11-v3 fused at the C-terminus of Fc-ABDEG (two-armed Fc-ABDEG-20GS-Cterm fusion) (Fc fusion, not shown: a dimerising Fc or GST; large carriers; small tags and cut ends)
VHH: B6 VHH with P101A
B11: 2H11-v16 fused at the C-terminus of Fc-ABDEG (two-armed Fc-ABDEG-20GS-Cterm fusion) (Fc fusion, not shown: a dimerising Fc or GST; large carriers; small tags and cut ends)
VHH: B6 VHH with F115A
B12: 2H11-v8 fused at the C-terminus of Fc-ABDEG (two-armed Fc-ABDEG-20GS-Cterm fusion) (Fc fusion, not shown: a dimerising Fc or GST; small tags and cut ends)
VHH: B6 VHH with W106A
B13: 2H11-v15 fused at the C-terminus of Fc-ABDEG (two-armed Fc-ABDEG-20GS-Cterm fusion) (Fc fusion, not shown: a dimerising Fc or GST; large carriers; small tags and cut ends)
VHH: B6 VHH with D114A
B14: 11C03 CDR1-V2 fused at the C-terminus of Fc-ABDEG (Fc fusion, not shown: a dimerising Fc or GST; small tags and cut ends)
chain: B3 VHH with Y32A
B15: 11C03 CDR2-V3 fused at the C-terminus of Fc-ABDEG (Fc fusion, not shown: a dimerising Fc or GST; small tags and cut ends)
chain: B3 VHH with S52A
B16: 11C03 CDR2-V12 fused at the C-terminus of Fc-ABDEG (Fc fusion, not shown: a dimerising Fc or GST; small tags and cut ends)
chain: B3 VHH with Y61A
B17: 11C03 CDR2-V4 fused at the C-terminus of Fc-ABDEG (Fc fusion, not shown: a dimerising Fc or GST; small tags and cut ends)
chain: B3 VHH with W53A
B18: 11C03 CDR2-V7 fused at the C-terminus of Fc-ABDEG (Fc fusion, not shown: a dimerising Fc or GST; small tags and cut ends)
chain: B3 VHH with G56A
B19: 11C03 CDR2-V10 fused at the C-terminus of Fc-ABDEG (Fc fusion, not shown: a dimerising Fc or GST; small tags and cut ends)
chain: B3 VHH with T59A
B20: 11C03 CDR1-V3 fused at the C-terminus of Fc-ABDEG (Fc fusion, not shown: a dimerising Fc or GST; small tags and cut ends)
chain: B3 VHH with P33A
B21: 11C03 CDR2-V2 fused at the C-terminus of Fc-ABDEG (Fc fusion, not shown: a dimerising Fc or GST; small tags and cut ends)
chain: B3 VHH with I51A
B22: 11C03 CDR2-V5 fused at the C-terminus of Fc-ABDEG (Fc fusion, not shown: a dimerising Fc or GST; small tags and cut ends)
chain: B3 VHH with F54A

Positions count from the first letter of the chain named.

The first assay addresses T1, human serum albumin (human, UniProt P02768 25-609).
T1 construct: also called HSA
Briefly: SPR (Biacore), VHH clone, pH 5.5. A general note: Surface plasmon resonance follows binding to a sensor surface in real time, without labels.
As for B1, the Kd – broadly, the free concentration of one partner at which half of the binding sites on the other are occupied at equilibrium, for simple one-to-one binding – stood at 49.3 nM and the koff (usually the first-order rate constant of dissociation) was 0.0045 s⁻¹.

B2 gave a Kd of 55.2 nM and a koff of 0.0026 s⁻¹.

In turn, B3 yielded a Kd of 4.12 nM and a koff of 0.00051 s⁻¹.

B4 gave a Kd of 96.9 nM and a koff of 0.0034 s⁻¹.

Take B5: the Kd was determined as 16.6 nM and the koff is 0.0029 s⁻¹.

B6 yielded a Kd of 6.84 nM and a koff of 0.00063 s⁻¹.

B7 displayed a Kd of 12.4 nM and a koff of 0.0019 s⁻¹.

In another assay the target is T1, human serum albumin. The assay is described as follows: SPR (Biacore), VHH clone, pH 7.4.
For B1, the koff came to 0.0056 s⁻¹.

As to B2, the koff was found to be 0.0054 s⁻¹.

Molecule B3 gave a koff of 0.0039 s⁻¹.

B4 returned a koff of 0.011 s⁻¹.

Consider B5, for which the koff is 0.025 s⁻¹.

As for B6, the koff came to 0.052 s⁻¹.

B7 displayed a koff of 0.0033 s⁻¹.

In the next assay the target is T2, isolated DII of serum albumin (UniProt P02768 211-403, limits assumed).
T2 construct: domain: DII
Briefly: DII binder column of the clone screening.
As to B1, the binding result is “no binding”.

As for B2, the binding result is “no binding”.

B4: the binding result is “no binding”.

In the case of B5, the binding result is given as “no binding”.

B7: the binding result is recorded as “no binding”.

The target in another assay is T1, human serum albumin. Briefly: SPR (Biacore), off-rate pH 7.4 over pH 5.5.
With B1, the “Ratio Kd” value is 1.3.

Take B2: the “Ratio Kd” value worked out at 2.1.

As for B3, the “Ratio Kd” value came to 7.7.

For the molecule B4, the “Ratio Kd” value came out at 3.3.

On to B5, for which the “Ratio Kd” value is 8.7.

For the molecule B6, the “Ratio Kd” value was determined as 81.9.

As to B7, the “Ratio Kd” value amounted to 1.8.

For the next assay, the target named is T3, cynomolgus monkey serum albumin (cynomolgus monkey, UniProt A2V9Z4 25-608).
T3 construct: also called cyno albumin; CSA
Briefly: species reactivity, screening by ELISA and Biacore. (An ELISA detects its analyte on a solid surface through an enzyme-linked reagent.)
With B2, the binding result was “binds”.

B4: the binding result is on record as “binds”.

With B5, the binding result is listed as “binds”.

Consider B7, for which the binding result is recorded as “binds”.

A further assay addresses T4, mouse serum albumin (mouse, UniProt P07724 25-608).
T4 construct: also called MSA; mouse albumin
Briefly: species reactivity, screening by ELISA and Biacore.
Regarding B3, the binding result is listed as “binds”.

The next assay addresses T3, cynomolgus monkey serum albumin. Briefly: SPR (Biacore 3000), albumin on chip, Fc-ABDEG fusion.
Consider B8, for which the binding result is given as “no binding”.

Regarding B9, the binding result is “no binding”.

Regarding B10, the binding result was “no binding”.

As for B11, the binding result is “no binding”.

B12: the binding result is recorded as “no binding”.

As for B13, the binding result was “no binding”.

In another assay the target is T1, human serum albumin. Briefly: SPR (Biacore 3000), HSA on chip, Fc-ABDEG fusion, pH 5.5.
As to B14, the “R0 pH 5.5” value is 108 RU.

On to B15, for which the “R0 pH 5.5” value was determined as 68.5 RU.

B16: the “R0 pH 5.5” value came out at 38.7 RU.

Take B17: the “R0 pH 5.5” value amounted to 12.3 RU.

For the molecule B18, the “R0 pH 5.5” value was 4.57 RU.

With B19, the “R0 pH 5.5” value came to 136 RU.

Take B20: the “R0 pH 5.5” value was determined as 109 RU.

For B21, the “R0 pH 5.5” value was found to be 15.1 RU.

For the molecule B22, the “R0 pH 5.5” value was found to be 12.3 RU.

The target in the next assay is T1, human serum albumin. The assay is described as follows: SPR (Biacore 3000), HSA on chip, Fc-ABDEG fusion, pH 7.4.
With B14, the “R0 pH 7.4” value is 5.82 RU.

Consider B15, for which the “R0 pH 7.4” value was 2.4 RU.

B16: the “R0 pH 7.4” value was found to be 1.5 RU.

For B17, the “R0 pH 7.4” value was found to be 0.826 RU.

Turning to B18, the “R0 pH 7.4” value was found to be 1.12 RU.

On to B19, for which the “R0 pH 7.4” value was found to be 8.6 RU.

As for B20, the “R0 pH 7.4” value amounted to 5.1 RU.

As for B21, the “R0 pH 7.4” value is 1.22 RU.

As to B22, the “R0 pH 7.4” value stood at 1.06 RU.

Another assay concerns the target T1, human serum albumin. Briefly: SPR (Biacore 3000), HSA on chip, Fc-ABDEG fusion, ratio of R0.
For B14, the “R0 5.5/7.4” value came out at 19.

Take B15: the “R0 5.5/7.4” value is 28.

With B16, the “R0 5.5/7.4” value came to 26.

B17: the “R0 5.5/7.4” value is 15.

With B18, the “R0 5.5/7.4” value was 4.

As to B19, the “R0 5.5/7.4” value is 16.

B20: the “R0 5.5/7.4” value was found to be 21.

As to B21, the “R0 5.5/7.4” value came to 12.

For the molecule B22, the “R0 5.5/7.4” value was 12.

In another assay the target is T3, cynomolgus monkey serum albumin. Briefly: SPR (Biacore 3000), cyno albumin on chip, Fc-ABDEG fusion, pH 5.5.
Regarding B14, the “R0 pH 5.5” value worked out at 37.8 RU.

For B15, the “R0 pH 5.5” value stood at 54.2 RU.

Turning to B16, the “R0 pH 5.5” value stood at 26 RU.

B17: the R0 pH 5.5 was 0 RU.

Molecule B18 registered an R0 pH 5.5 of 0 RU.

With B19, the “R0 pH 5.5” value was found to be 105 RU.

With B20, the “R0 pH 5.5” value amounted to 103 RU.

In the case of B21, the “R0 pH 5.5” value is 5.22 RU.

Turning to B22, the R0 pH 5.5 was determined as 0 RU.

A further assay has the same target. The assay is described as follows: SPR (Biacore 3000), cyno albumin on chip, Fc-ABDEG fusion, pH 7.4.
On to B14, for which the “R0 pH 7.4” value amounted to 2.11 RU.

For the molecule B15, the “R0 pH 7.4” value came out at 2.6 RU.

Take B16: the “R0 pH 7.4” value worked out at 1.35 RU.

As to B17, the R0 pH 7.4 was found to be 2.77 RU.

On to B18, for which the R0 pH 7.4 was found to be 1.09 RU.

Take B19: the “R0 pH 7.4” value was 5.65 RU.

In the case of B20, the “R0 pH 7.4” value came to 5.2 RU.

As for B21, the “R0 pH 7.4” value was found to be 1.2 RU.

As to B22, the R0 pH 7.4 worked out at 1.1 RU.

For a further assay the target is unchanged. The assay is described as follows: SPR (Biacore 3000), cyno albumin on chip, Fc-ABDEG fusion, ratio of R0.
As for B14, the “R0 5.5/7.4” value is 17.9.

Turning to B15, the “R0 5.5/7.4” value came to 20.8.

For the molecule B16, the “R0 5.5/7.4” value turned out to be 19.3.

In the case of B19, the “R0 5.5/7.4” value came out at 18.6.

On to B20, for which the “R0 5.5/7.4” value was 19.8.

With B21, the “R0 5.5/7.4” value is 4.35.

These data come from patent US20250223342A1 (ARGENX, published 2025).
